Key:
[1] = target: proliferating cell nuclear antigen (PCNA) (yeast) (UniProt P15873)
[2] = target: proliferating cell nuclear antigen (PCNA) (yeast) (UniProt P15873); remark: listed apart in the source

Sequence of proliferating cell nuclear antigen (PCNA) (yeast) (P15873 whole entry): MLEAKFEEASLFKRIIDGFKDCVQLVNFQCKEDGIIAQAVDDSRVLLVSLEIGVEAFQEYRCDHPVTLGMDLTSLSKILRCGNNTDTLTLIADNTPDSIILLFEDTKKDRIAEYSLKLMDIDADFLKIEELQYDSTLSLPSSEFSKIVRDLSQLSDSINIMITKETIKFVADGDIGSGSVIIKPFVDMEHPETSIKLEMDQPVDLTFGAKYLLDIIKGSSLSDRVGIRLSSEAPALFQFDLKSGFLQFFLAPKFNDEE

processivity assay under single-hit conditions: product length on primed M13mp18 ssDNA upon addition of PCNA (0, 5, 10, 20 min); increase comparable to wild type [1] [nts] | holoenzyme assay: product length of DNA synthesis on single-primed M13mp18 ssDNA with PCNA loaded by RFC (10 and 20 min); stimulated by PCNA, although to a lesser extent than wild-type Pol ε [2] [bp] | processivity assay under single-hit conditions: product length on primed M13mp18 ssDNA upon addition of PCNA (0, 5, 10, 20 min) [1] [nts] | holoenzyme assay: product length of DNA synthesis on single-primed M13mp18 ssDNA with PCNA loaded by RFC (10 and 20 min); much less stimulation by PCNA [2] [bp] | Substance
300 | 3000 | – | – | four-subunit yeast Pol ε with the P-domain mutations D695A, E696A, N698A, K745A in Pol2 (DENK) (from UniProt P21951 1-2222; P24482 1-689; P27344 1-201; Q04603 1-196) (complex)
– | – | 300 | – | wild-type four-subunit yeast DNA polymerase ε (Pol2, Dpb2, Dpb3, Dpb4) (from UniProt P21951 1-2222; P24482 1-689; P27344 1-201; Q04603 1-196) (complex)
– | – | 85 | 400 | four-subunit yeast Pol ε with the P-domain mutation KKRL736-739AAAA in Pol2 (P3) (from UniProt P21951 1-2222; P24482 1-689; P27344 1-201; Q04603 1-196) (complex)
